Results: US6312887, “Method of using a crystal of the N-terminal domain of a signal transducer and activator of transcription” (The Rockefeller University)

Biological target: STAT-1alpha wild type (Tyr-phosphorylated) (Homo sapiens, UniProt P42224 P42224:2-750)
Assay: EMSA
Conditions: tags: in vitro Tyr-phosphorylated with EGF-receptor kinase; chain copies: 4 on tandem site (two dimers), stated; 2 on single site; label: radiolabel
Procedure: Both protein preparations (Tyr-phosphorylated wild type STAT-1α and W37A mutant) were titrated in gel shift experiments with an oligonucleotide containing a single M67 site (5'-GCCGAT TTCCCGTAAATCAT-3', SEQ ID NO:5) [Wagner et al., *EMBO J.* 9:4477 (1990)] to assure similar loading of active protein. A 12.5 μl reaction volume contained DNA binding buffer (20 mM Hepes/HCl, 4% Ficoll, 40 mM KCl, 10 mM MgCl_2, 10 mM CaCl_2, 1 mM DTT) radiolabelled DNA at a final concentration of 1×10^-10 M unless stated otherwise, 50 ng dIdC, 0.2 mg/ml BSA (Boebringer Mannheim), and the indicated amount of purified phosphorylated STAT protein. The reaction volume was mixed and then incubated at room temperature. The time necessary to reach equilibrium was assessed by EMSA [(Stone et al., in Jost, J.P. & Saluz, H.P. (eds) *A Laboratory Guide to In Vitro Studies of Protein-DNA Interactions* BioMethods, vol.5:163–195 (1991)]. For all DNA fragments tested, equilibrium turned out to be fully established at the earliest timepoint that can be determined by this technique (30 sec). Therefore incubation periods of 5–15 minutes were chosen. Reaction products were loaded onto a 4% polyacrylamide gel (1.5 mm thick) containing 0.25×Tris-borate-EDTA which had been pre-run at 20V/cm for 2 hours at 4° C. Electrophoresis was continued for 60 minutes at 4° C. […]

Chain of STAT-1alpha wild type (Tyr-phosphorylated) (P42224 2-750, one chain of several): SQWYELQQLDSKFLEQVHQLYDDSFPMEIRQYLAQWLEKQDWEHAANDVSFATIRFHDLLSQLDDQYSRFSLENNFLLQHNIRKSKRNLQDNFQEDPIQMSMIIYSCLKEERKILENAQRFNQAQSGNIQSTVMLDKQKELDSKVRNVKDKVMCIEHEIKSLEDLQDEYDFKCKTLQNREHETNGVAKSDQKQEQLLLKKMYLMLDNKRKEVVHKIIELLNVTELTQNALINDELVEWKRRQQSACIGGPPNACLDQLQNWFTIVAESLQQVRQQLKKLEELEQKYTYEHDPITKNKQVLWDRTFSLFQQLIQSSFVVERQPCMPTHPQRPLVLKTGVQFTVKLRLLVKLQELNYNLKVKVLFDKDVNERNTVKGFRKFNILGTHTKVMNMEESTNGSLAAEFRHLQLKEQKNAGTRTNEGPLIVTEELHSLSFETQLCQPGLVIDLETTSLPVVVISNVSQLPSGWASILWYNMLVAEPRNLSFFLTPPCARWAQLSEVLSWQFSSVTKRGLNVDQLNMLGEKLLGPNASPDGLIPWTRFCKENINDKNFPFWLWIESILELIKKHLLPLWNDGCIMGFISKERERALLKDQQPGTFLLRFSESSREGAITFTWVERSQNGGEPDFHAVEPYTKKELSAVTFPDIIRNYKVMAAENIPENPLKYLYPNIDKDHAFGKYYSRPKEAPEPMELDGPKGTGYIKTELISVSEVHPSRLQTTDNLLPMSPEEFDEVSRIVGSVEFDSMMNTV

B1: tandem c-fos STAT recognition element, 10 bp spacing (dsDNA)
DNA 1: GCCAGTCAGTTCCCGTCAATGCATCAGGTTCCCGTCAATGCAT
DNA 2: ATGCATTGACGGGAACCTGATGCATTGACGGGAACTGACTGGC
B1: binds.
